Test results as given in paper PMC9472817, “Structural and functional characterisation of a stable, broad-specificity multimeric sialidase from the oral pathogen Tannerella forsythia” (Biochemical Journal, 2022).

Target: NanH sialidase of Tannerella forsythia (wild type) (Tannerella forsythia 92A.2)
Test: SEC-MALS; NanH at 0.5 and 3.0 mg/ml on Superdex S200 10/300 in 50 mM sodium phosphate, 200 mM NaCl pH 7.4, ~20°C; self-association

Substance: NanH sialidase of Tannerella forsythia (wild type) (enzyme)
- percent of the protein as dimer: 90%
- stoichiometry N: 2
